# According to patent US20160200782A1 (MOERAE MATRIX, published 2016):
# T1: Ret(V804L)(h) (human, UniProt P07949 658-1114, limits assumed)
# T1 sequence (looked up): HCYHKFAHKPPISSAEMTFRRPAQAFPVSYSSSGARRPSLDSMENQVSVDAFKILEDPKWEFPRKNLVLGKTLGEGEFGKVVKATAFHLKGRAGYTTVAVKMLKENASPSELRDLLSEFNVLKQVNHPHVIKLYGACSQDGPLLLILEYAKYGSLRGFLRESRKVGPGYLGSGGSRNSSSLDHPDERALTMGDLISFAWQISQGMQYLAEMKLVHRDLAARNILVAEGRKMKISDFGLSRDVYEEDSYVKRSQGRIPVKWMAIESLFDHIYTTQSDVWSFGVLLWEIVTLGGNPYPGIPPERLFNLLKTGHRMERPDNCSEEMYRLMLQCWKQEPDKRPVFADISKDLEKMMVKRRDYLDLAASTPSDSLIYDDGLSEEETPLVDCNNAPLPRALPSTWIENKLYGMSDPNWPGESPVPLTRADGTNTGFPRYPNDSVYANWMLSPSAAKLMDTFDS
# T2: MRCKβ(h) (human, UniProt Q9Y5S2 1-473, limits assumed)
# T2 sequence (looked up): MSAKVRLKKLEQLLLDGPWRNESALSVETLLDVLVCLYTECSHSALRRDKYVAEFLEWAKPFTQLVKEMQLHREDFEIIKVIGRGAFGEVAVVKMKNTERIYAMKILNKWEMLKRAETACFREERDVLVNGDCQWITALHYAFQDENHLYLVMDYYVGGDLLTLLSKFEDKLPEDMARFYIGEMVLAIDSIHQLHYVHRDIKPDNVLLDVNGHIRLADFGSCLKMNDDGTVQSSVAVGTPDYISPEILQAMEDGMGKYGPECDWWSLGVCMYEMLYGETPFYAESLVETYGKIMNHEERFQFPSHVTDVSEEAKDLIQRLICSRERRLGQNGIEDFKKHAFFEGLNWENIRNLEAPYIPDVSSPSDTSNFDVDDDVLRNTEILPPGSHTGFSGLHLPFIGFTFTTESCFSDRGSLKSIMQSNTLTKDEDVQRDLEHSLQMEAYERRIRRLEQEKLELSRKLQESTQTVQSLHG
# T3: IRAK4(h) (human, UniProt Q9NWZ3 1-460, limits assumed)
# T3 sequence (looked up): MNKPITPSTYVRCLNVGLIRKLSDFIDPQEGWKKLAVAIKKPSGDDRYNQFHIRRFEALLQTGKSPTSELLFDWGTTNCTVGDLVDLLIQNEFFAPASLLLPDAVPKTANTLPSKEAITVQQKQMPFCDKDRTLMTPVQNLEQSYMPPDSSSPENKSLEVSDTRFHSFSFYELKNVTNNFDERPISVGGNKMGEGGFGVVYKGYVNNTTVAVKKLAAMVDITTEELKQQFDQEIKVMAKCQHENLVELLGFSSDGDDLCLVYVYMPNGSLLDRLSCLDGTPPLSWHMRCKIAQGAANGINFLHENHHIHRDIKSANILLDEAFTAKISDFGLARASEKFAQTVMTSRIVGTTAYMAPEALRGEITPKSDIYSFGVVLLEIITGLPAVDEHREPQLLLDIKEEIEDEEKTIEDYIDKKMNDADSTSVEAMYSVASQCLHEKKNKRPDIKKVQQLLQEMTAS
# T4: Flt3(h) (human, UniProt P36888 564-993, limits assumed)
# T4 sequence (looked up): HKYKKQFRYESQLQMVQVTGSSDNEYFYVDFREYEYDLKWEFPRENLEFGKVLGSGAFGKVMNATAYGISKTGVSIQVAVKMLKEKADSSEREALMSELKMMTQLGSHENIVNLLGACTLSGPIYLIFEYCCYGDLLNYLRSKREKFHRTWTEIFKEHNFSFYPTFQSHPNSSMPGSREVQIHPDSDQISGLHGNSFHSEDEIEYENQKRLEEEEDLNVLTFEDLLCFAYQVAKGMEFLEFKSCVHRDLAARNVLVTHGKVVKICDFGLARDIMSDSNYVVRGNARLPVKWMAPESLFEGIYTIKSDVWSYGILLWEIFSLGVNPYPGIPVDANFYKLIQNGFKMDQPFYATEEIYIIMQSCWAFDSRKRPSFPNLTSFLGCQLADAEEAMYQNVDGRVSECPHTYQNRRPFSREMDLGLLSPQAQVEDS
# How the values were obtained:
# Test in all cases: cell-based or functional assay
# FGFR1(h) = FGFR1(h) (human, UniProt P11362 456-765, limits assumed)
# PKCδ(h) = PKCδ(h) (human, UniProt Q05655 1-676)
# cKit(D816V)(h) = cKit(D816V)(h) (human, UniProt P10721 544-976, limits assumed)
# MEK1(h) = MEK1(h) (human, UniProt Q02750 1-393, limits assumed)
# Met(D1246H)(h) = Met(D1246H)(h) (human, UniProt P08581-2 974-1408, limits assumed)
# Ret(V804L)(h) = molecular target: T1, Ret(V804L)(h)
# MRCKβ(h) = molecular target: T2, MRCKβ(h)
# SAPK2a(T106M)(h) = SAPK2a(T106M)(h) (human, UniProt Q16539 1-360)
# PKCα(h) = PKCα(h) (human, UniProt P17252 1-672)
# IRAK4(h) = molecular target: T3, IRAK4(h)
# Flt3(h) = molecular target: T4, Flt3(h)
# Arg(h) = Arg(h) (human, UniProt P42684 38-1182, limits assumed)
# Also: test concentration or dose not given here.
# Sequence of PKCδ(h) (Q05655 whole entry, stated change not applied): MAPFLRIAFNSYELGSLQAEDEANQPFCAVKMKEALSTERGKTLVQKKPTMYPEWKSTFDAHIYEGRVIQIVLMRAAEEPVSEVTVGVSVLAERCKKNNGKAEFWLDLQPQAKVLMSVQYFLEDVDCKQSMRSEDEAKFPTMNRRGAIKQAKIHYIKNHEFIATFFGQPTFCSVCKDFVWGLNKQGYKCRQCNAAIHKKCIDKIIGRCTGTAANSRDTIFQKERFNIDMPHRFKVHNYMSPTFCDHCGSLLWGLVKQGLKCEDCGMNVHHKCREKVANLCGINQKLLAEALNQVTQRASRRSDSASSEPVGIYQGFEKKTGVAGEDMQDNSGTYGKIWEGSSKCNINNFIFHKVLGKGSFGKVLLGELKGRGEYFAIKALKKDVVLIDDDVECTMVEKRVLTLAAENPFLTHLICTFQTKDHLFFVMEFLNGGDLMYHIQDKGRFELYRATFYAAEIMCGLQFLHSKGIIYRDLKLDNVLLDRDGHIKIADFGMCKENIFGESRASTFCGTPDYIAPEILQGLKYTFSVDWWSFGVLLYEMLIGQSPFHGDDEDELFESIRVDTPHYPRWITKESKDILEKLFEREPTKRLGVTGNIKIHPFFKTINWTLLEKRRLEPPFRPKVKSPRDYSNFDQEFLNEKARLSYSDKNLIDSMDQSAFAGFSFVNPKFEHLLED
# Sequence of SAPK2a(T106M)(h) (Q16539 whole entry T106M): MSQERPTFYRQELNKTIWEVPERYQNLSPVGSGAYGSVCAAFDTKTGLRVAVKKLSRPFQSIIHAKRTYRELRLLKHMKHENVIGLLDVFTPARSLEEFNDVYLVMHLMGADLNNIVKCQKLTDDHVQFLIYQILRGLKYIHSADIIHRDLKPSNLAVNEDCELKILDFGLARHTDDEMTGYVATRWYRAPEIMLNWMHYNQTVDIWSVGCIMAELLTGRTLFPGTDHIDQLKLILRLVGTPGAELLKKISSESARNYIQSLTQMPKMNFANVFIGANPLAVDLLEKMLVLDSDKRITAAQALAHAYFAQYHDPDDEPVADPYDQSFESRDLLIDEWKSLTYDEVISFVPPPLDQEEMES
# Sequence of cKit(D816V)(h) (P10721 544-976 D816V limits assumed): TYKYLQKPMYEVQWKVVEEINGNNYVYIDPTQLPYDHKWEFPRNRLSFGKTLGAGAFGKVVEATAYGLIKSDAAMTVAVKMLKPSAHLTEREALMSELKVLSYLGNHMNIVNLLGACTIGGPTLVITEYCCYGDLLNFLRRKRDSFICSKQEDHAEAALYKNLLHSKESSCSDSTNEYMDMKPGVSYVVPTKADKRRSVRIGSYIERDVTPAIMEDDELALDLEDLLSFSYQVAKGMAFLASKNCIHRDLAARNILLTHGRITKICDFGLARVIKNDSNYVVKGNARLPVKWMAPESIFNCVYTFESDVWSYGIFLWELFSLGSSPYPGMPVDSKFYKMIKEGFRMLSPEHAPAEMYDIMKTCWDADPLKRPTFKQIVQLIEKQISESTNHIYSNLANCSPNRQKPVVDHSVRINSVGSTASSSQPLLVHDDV
# Sequence of FGFR1(h) (P11362 456-765 limits assumed): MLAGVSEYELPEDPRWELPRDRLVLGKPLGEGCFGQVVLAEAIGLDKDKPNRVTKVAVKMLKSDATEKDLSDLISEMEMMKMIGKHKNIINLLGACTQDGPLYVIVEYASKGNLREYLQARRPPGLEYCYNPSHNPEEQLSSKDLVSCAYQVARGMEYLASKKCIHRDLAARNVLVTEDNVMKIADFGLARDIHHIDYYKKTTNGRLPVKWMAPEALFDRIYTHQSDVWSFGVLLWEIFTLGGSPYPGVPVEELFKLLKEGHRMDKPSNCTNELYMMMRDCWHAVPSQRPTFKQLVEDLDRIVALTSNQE
# Sequence of Arg(h) (P42684 38-1182 limits assumed): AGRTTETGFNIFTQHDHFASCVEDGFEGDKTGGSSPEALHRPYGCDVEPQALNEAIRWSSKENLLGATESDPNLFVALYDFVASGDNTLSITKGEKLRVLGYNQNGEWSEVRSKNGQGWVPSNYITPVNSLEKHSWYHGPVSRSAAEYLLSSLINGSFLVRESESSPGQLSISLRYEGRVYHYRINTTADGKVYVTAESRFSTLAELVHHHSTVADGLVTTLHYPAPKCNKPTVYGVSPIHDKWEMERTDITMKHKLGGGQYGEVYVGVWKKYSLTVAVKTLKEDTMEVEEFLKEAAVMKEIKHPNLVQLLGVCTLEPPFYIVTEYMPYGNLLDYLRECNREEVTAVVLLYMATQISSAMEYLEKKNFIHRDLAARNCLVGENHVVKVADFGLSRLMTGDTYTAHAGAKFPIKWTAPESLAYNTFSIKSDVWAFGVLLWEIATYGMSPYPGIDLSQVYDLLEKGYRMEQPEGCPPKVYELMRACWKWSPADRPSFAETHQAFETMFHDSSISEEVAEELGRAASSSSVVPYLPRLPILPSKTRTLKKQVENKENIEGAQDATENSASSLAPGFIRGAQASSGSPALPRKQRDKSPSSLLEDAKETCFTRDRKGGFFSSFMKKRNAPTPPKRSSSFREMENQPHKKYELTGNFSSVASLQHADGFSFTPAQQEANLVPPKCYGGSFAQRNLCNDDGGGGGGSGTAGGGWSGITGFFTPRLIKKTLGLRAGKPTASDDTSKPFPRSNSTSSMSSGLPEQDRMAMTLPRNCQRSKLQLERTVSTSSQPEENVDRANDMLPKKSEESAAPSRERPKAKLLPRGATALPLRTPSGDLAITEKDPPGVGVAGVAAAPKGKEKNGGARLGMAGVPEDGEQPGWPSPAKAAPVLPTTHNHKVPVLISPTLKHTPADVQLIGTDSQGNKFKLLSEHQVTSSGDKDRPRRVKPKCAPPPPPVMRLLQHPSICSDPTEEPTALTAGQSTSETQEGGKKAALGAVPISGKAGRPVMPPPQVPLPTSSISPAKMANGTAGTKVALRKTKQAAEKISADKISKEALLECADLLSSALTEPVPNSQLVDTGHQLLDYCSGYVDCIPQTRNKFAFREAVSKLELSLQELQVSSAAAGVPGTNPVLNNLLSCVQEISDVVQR
% activity (FGFR1(h)) [%],% activity (PKCδ(h)) [%],% activity (cKit(D816V)(h)) [%],% activity (MEK1(h)) [%],% activity (Met(D1246H)(h)) [%],% activity (Ret(V804L)(h)) [%],% activity (MRCKβ(h)) [%],% activity (SAPK2a(T106M)(h)) [%],% activity (PKCα(h)) [%],% activity (IRAK4(h)) [%],% activity (Flt3(h)) [%],% activity (Arg(h)) [%],Binder
59,90,35,77,68,73,71,99,86,59,18,84,KAFAKLAARLYRKALARQLGVAA [MMI-0400]
55,101,60,77,125,79,83,97,89,59,84,72,FAKLAARLYRKALARQLGVAA [MMI-0300]
